For the data set, the system named is maize C4 PEPC. Nature of the data set: Kinetic and regulatory properties of PEPC variants (expressed in E. coli). The format is biochemical. The note with it: for PEP, no activators kcat/S0.5 / PEP, no activators kcat/S0.5 % wt / PEP, with activators kcat/S0.5 / kcat/S0.5 Fold incr. / PEP, with activators kcat/S0.5 % wt: PEP substrate; for PEP, no activators kcat/S0.5 % wt / PEP, with activators kcat/S0.5 % wt / Glc-6-P A0.5 % wt / Glycine A0.5 % wt / HCO3 kcat/S0.5 % wt / Malate Ki % wt / Ki for malate, in words / Vmax, in words / activation by glucose-6-phosphate, in words / activation by glycine, in words: relative to wild type; for kcat/S0.5 Fold incr.: with activators vs no activators; for HCO3 S0.5 / HCO3 kcat/S0.5 / HCO3 kcat/S0.5 % wt: bicarbonate substrate; for Ki / Malate Ki % wt: inhibitor malate. The text has this: Libraries of modified PEPC polynucleotides were generated using recursive sequence recombination methods (Stemmer, Proc. Natl. Acad. Sci USA 91:10747-10751; Ness, et. al., Nature Biotechnology 20:1251-1255), also known as gene shuffling methods. These libraries incorporated diversity from related PEPC enzymes and also incorporated other designed and random changes. The starting polynucleotide sequence in which the diversity was incorporated was the maize C4 PEPC as shown in SEQ ID NO: 25. Each PEPC variant was expressed in E. coli as a thioredoxin fusion using the pET 32 expression vector (Novagen) with the E. coli expression strain Rosetta gami 2 BL21 DE3 pLYS S. Cultures expressing the variants were grown in 96-well culture blocks, lysed, and then PEPC activity and PEPC protein abundance were determined. The variants with high specific activity were subjected to further rounds of shuffling, for a total of 3 rounds. Examples of nucleotide and amino acid sequences of PEPC variants obtained with this method are SEQ ID NO: 4 to 24.
Detailed kinetic studies of PEPC variants were done in accordance with methods known in the art. See, for example, Tovar-Mendez et al. (2000) Plant Physiol. 123: 149-160; Tover-Mendez et al. (1998) Biochem. J. 332: 633-642.
PEPC variants had several improved properties in comparison with wild type PEPC, including greater affinity (lower S0.5 values) with respect to the bicarbonate substrate, greater Kcat/S0.5 values with the bicarbonate or PEP substrates, greater activation (lower A0.5 values) with […] or glycine as activators and greater Ki values with malate as inhibitor.

[1] abbreviates: activator Glc-6-P, read-out: Glc-6-P A0.5.
The mark [2] stands for this setting: activator glycine, read-out: Glycine A0.5.

Changes are numbered by the printed parent chain. Where two headings read alike, the source gives them in different places.

B1: 3F30-F12: maize C4 PEPC variant, 7 amino acid substitutions, SEQ ID NO: 11 (protein)
chain: MASTKAPGPGEKHHSIDAQLRQLVPGKVSEDDKLIEYDALLVDRFLNILQDLHGPSLREFVQECYEVSADYEGKGDTTKLGELGAKLTGLAPADAILVASSILHMLNLANLAEEAQIAHRRRNSKLKKGGFADEGSATTESDIEETLKRLVSEVGKSPEEVFEALKNQTVDLVFTAHPTQSARRSLLQKNAGIRNCLTQLNAKDITDGDKQELDEALQREIQAAFRTDEIRRAQPTPQDEMRYGMSYIHETVWKGVPKFLRRVDTALKNIGINERLPYNVSLIRFSSWMGGDRDGNPRVTPEVTRDVCLLARMMAANLYIDQIEELMFELSMWRCNDELRVRAEELHSSSGSKVTKYYIEFWKQIPPNEPYRVILGHVRDKLYNTRERARHLLASGVSEISAESSFTSIEEFLEPLELCYKSLCDCGDKAIADGSLLDLLRQVFTFGLSLVKLDIRQESERHTDVIDAITTHLGIGSYREWSEDKRQEWLLSELRGKRPLLPPDLPQTDEIADVIGAFHVLAELPPDSFGPYIISMATAPSDVLAVELLQRECGIKQPLPVVPLFERLADLQSAPASVERLFSVDWYMDRIKGKQQVMVGYSDSGKDAGRLSAAWQLYKAQEEMAQVAKRYGVKLTLFHGRGGTVGRGGGPTHLAILSQPPDTINGSIRVTVQGEVIEFCFGEEHLCFQTLQRFTAATLEHGMHPPVSPKPEWRKLMDEMAVVATEEYRSVVVKEPRFVEYFRSATPETEYGRMNIGSRPAKRRPGGGITTLRAIPWIFSWTQTRFHLPVWLGVGAAFKFAIDKDVRNFQVLKEMYNEWPFFRVTLDLLEMIFAKGDPGIAGLYDELLVAEELKPFGKQLRDKYVETQQLLLQIAGHKDILEGDPFLKQGLVLRNPYITTLNVFQAYTLKRIRDPNFKVTPQPPLSKEFADENKPAGLVKLNPASEYPPGLEDTLILTMKGIAAGMQNTG
modifications: shuffled variant
On to B1, for which the “PEP, no activators kcat/S0.5” value came out at 89800 M⁻¹ s⁻¹; the “PEP, no activators kcat/S0.5 % wt” value is 263 % wt; the “PEP, with activators kcat/S0.5” value stood at 4.496e+06 M⁻¹ s⁻¹; the “kcat/S0.5 Fold incr.” value worked out at 50.1 Fold incr. For the same molecule, the “PEP, with activators kcat/S0.5 % wt” value is on record as 184 % wt; the “HCO3 S0.5” value was 0.0248 mM; the “HCO3 kcat/S0.5” value amounted to 3.481e+06 M⁻¹ s⁻¹; the “HCO3 kcat/S0.5 % wt” value amounted to 164 % wt. Besides, the Ki came out at 3300 µM; the “Malate Ki % wt” value was found to be 825 % wt; the “Ki for malate, in words” value is listed as “increased Ki”; the “Vmax, in words” value is recorded as “better Vmax”. For the same molecule, the “activation by glucose-6-phosphate, in words” value is given as “increased activation” and the “activation by glycine, in words” value was “increased activation”. Further, under “activator Glc-6-P”, the “Glc-6-P Vmax Fold incr” value was 12.6 Fold incr and the “Glc-6-P A0.5 % wt” value is listed as 75 % wt. Moreover, the EC50 under setting [1] was 5110 µM. Moreover, where the note is “activator glycine”, the “Glycine Vmax Fold incr” value is on record as 11.3 Fold incr and the “Glycine A0.5 % wt” value stood at 19 % wt. The EC50 under setting [2] was determined as 700 µM.

B2: 3C2-H4: maize C4 PEPC variant, 6 amino acid substitutions, SEQ ID NO: 12 (protein)
chain: B1 chain with A115V, H119R, G208D, S404A, R495K, I555V, K556R, R807K, I832V
modifications: shuffled variant
For B2, the “PEP, no activators kcat/S0.5” value was found to be 64100 M⁻¹ s⁻¹; the “PEP, no activators kcat/S0.5 % wt” value is listed as 188 % wt; the “PEP, with activators kcat/S0.5” value amounted to 3.919e+06 M⁻¹ s⁻¹; the “kcat/S0.5 Fold incr.” value is 61.2 Fold incr. Besides, the “PEP, with activators kcat/S0.5 % wt” value is reported as 160 % wt; the “HCO3 S0.5” value worked out at 0.026 mM; the “HCO3 kcat/S0.5” value was found to be 3.581e+06 M⁻¹ s⁻¹; the “HCO3 kcat/S0.5 % wt” value was 169 % wt. Also, the Ki worked out at 1000 µM; the “Malate Ki % wt” value is recorded as 250 % wt; the “Ki for malate, in words” value was “increased Ki”; the “Vmax, in words” value is “better Vmax”. Besides, the “activation by glucose-6-phosphate, in words” value was “increased activation” and the “activation by glycine, in words” value was “increased activation”. For the same molecule, where the note is “activator Glc-6-P”, the “Glc-6-P Vmax Fold incr” value stood at 7.6 Fold incr and the “Glc-6-P A0.5 % wt” value was 44 % wt. For the same molecule, under setting [1], the EC50 was 3020 µM. For the same molecule, where the note is “activator glycine”, the “Glycine Vmax Fold incr” value was found to be 10.3 Fold incr and the “Glycine A0.5 % wt” value came out at 16 % wt. Under setting [2], the EC50 was 560 µM.

The values are drawn from patent US20140298544A1, “Engineered PEP carboxylase variants for improved plant productivity” (PIONEER HI BRED INTERNATIONAL INC, priority 2011, published 2014).
